# According to the DeepSol protein solubility set:
# Experiment: soluble on expression in E. coli; label from the status in PepcDB or PDB records
row,Sequence,soluble on expression in E. coli
1,MGSDKIHHHHHHMADQMQWANALSTRHSLEAAVTDVVERAVSLLTAPADLGLVFISSAFTSEYSRLLPLLAEKLSVPVLIGCSGGGVIGTTVNGEIQELEAEPAISLTLAHLPGVKVQVFHVVAEELPDLDSSPDAWVDLIGVPASPTPQFILLSSSFASGINDLLQGLDFAYPGSVIVGGQASGGGMGGRVALFCNESDGEECQSLYREGTVGIALTGNIVLETIVAQGCRPIGKPLQVTKADRNIILELDEQVPLVVLRDLIASLSEHERTLAQHSLFVGVAMDEFKLALQQGDFLIRGILGVDPTAGAIAIGDRVRPGQRLQFHLRDAQASAEDLELLLQSYQTQRESEPSAVAALMFACLGRGEGLYGKPNFDSELFRRYLSDIPVGGFFCGGEIGPVGGRTFLHAYTSAFGICRQNQL,not soluble
2,MGSDKIHHHHHHMADTFLFRVHRSQILPALNAVFEAVDPRSNIPILQNVLLSPNAERLRLSGTNMTVEVETSCDLLESASGNPLTLSGKALLDIVKSFSEVAEIEFSFDDLRGQVRVKSGRSRFLLATLHADQFPTIASLASGKSVAVDMPSLISAIARVKYALFDHKDRAYLSGIFIHPEEGENKIAVVAADGHNLAVVRFPCEAGTTFPGAIIPIKAIDAIRRLFGETKASAQVKISDEMIQICCHDVRLTSKLIDAVYPDYDVAIPKDNTSRIIVDAKHLINAVHRVCLVKKDDKRDTIKLVGSNGMLQVSMAATDGEEAVEEIAAEYNGPQIRIGFNGDYLKDALSSIKTTDVAINLLTESSPGLLTPTVGTDELYVVYPRVLPHD,not soluble
3,MGSDKIHHHHHHMAEFTHLVNERRSASNFLSGHPITKEDLNEMFELVALAPSAFNLQHTKYVTVLDQDVKEKLKQAANGQYKVVSSSAVLLVLGDKQAYQQAADIYEGLKVLGILNKQEYDHMVQDTVSFYENRGEQFKRDEAIRNASLSAMMFMLSAAAAGWDTCPMIGFDAEAVKRILNIDDQFEVVMMITIGKEKTESRRPRGYRKPVNEFVEYM,soluble
4,MGSDKIHHHHHHMAESSFVYNGVEITWLKHAGFRIKGSRVVYIDPYDIPEELEKADVILVTHDHFDHMDVKSIRKLSKDDTVVVHPSGCIIEGFESCEVGVGTEAEVKGVKIKAVPAYNVDKPFHKENCVGYIVGIDGVKIYHAGDTDRIPEMKEIEVDIALLPVGGTYTMNLQEAIEAAKDIRAKYYIPMHFGAIPQTSADPEEFKRKVKGAVILKPLF,not soluble
5,MGSDKIHHHHHHMAFTSDSLAIFLAVLDAGSFSAAARKLGRVPSAVSMAIAQLEAELDLPLFDRATRKALPTNAALALEPQARQVICQLNLLDAQALQLHKGLEKRLTIAMAPELQTGRWSQPLEILAQAFPSLEVEVRSATQTEAIRLLHDGSVQLALVFERPGIDERESFLEAGSQLLVAVASPRHPAGQNSGSPLPEEAFAEQRQIIVASGKATGSDPRMVLSRRIWLTDSYLATLDLVQSGLGWAYLPQPLVEPLIASGALAEVRFDNMANRLRLWVDIIWIKSRPLGLGARRYLEVMRQLFEKEPPRA,not soluble
6,MGSDKIHHHHHHMAGVMSRRLDVDALRALVAIERHGGVTRAAEILGLSQSAVSHKIRRLETSLDCEILTRKANAPMFTTAGQDLLGYARRILGIHDEAVLSLSKSPLQGKIALGMTEDTTCTDLSRILGRFRRLYPEVSVRTQVRMSLVLQEQLSQGALDAAIIQVFQHEVRPADILLFRETLHWVKSRDLVLSAGKPVPFLSFDENCFYRRWGIDVGQDEDTVLETVFECSSAAGIIAGVTAGLGVALLSQRYLQPAMEIVDDKFPKPPDLAYVIRRARVPRNPALETLVREIEAEVKRYGTLQIAV,not soluble
7,MGSDKIHHHHHHMAHAHQKSDPHTVDFQVDPVVLELGQRFVDAGYELSLVGGPVRDLFLGRRSPDLDFTTDATPDQTLALIRKWADNFWEIGKAFGTIGMRKSGFQIEITTYRAEAYDPESRKPMVAFGSSLTDDLLRRDFTINAMALRLPSMELIDPFGGVRDLHASVLATPGAPETSFSDDPLRMMRAARFAAQLGVAVRGDVKHAMSQMAERISIISAERVREELVKLICGAHPRVGIDLLVDTGLAEFVLPEVSALRLEADEHHRHKDVYQHSLQVLEQAASLETDSDGAVPGPDFVLRFAALMHDVGKPATRRFEPGGAVSFRHHDMVGSKLTKKRMKALRFDNDTIKAVARLVELHMRFYGYGEAGWSDSAVRRYVTDAGPLLERLHRLTRSDVTTRNQRKADRLSFAYDDLEARIAALREQESLEAVRPDLDGGQIMALLGLKPGPVVGKAYKFLLEQRMEHGPLDPVVAEARLREWWADQPEAAEHQPAAGVELSTTEES,not soluble
8,MGSDKIHHHHHHMAIDLLNIARTGVLASQSQLGVTSNNIANANTVGYHRQVATQTTLDSQRLGSSFYGTGTYVSDVKRIYNDYAARELRIGQTTLSAAEASYGKLSELDQIFSQIGKVVPQSLTDLFAGLNSLADLPADLGIRSSTLNDAKQLANSLNQMQSTLNGQLNQTNDQITGMTKRINEISTELANLNLELMKSPNQDPILLDKQDALVQELSQYAQVNVIPLENGAKSIMLGGSIMLVSGEVAMSMSTATGDPFPNELQLMSSIGSQSVKADPSKLGGQLGALFEYRDQTLVPASLELDQLALGVADSFNKLQAQGFDLNGQVGANMFKDINDPLMSLGRVGGFTDNTGNATLGVNIDDTSALTGGSYELSFTAPSTYELRDTQRARLLRLP,not soluble
9,MGSDKIHHHHHHMAIYEARGFSSYLYPYKGPLEPFDYIAQFRPLKPPEDIDIEEYKRTQAPYCLSGKVTAEKNGSYKRNNASLVYRDLIFLDYDEIETGVNLPKIVSQTLWEYSYIIYPTIKHTPEKPRYRLVMKPSDVMTEATYKQVVKEIADKIGLPFDLASLTWSQLQGLPVTTGDPEDYQRYVNHGLDYPVPKNGSTPNRQVVTTYTPRPRSQRSITMRVIDTLFNGFGNEGGRNVALTKFVGLLFNKWVDCDLETAYELVQIANSVTTKPLPIDEIDRTFTSIAKAEYRKRG,not soluble
10,MGSDKIHHHHHHMAKDIHSKAGTTLPPYFNIDPDAAMAELDQPTDTARFAEIAEGCARGRADLASRGLNEEGSKNLRLFSTWEITRYLIPVAQAHFRRVLKANPDLPQGRSETEGGAKWFTLDEVLRLRAFFAAQGSKAKNYLPYRPEGLPAKLVAVANFKGGVGKTSTAAHLAMSAALDGYKVLVIDLDSQGSMTSIFGGKIEDEWQTAFPLLARHYGEHLRVENQRRLDRGDAPQPLDESLTAAMEMTAKDVIQPTHWPNIDLIGAQLNLYWAEFQIPVWRMAARSWKLWDALTDRLEADGVLDQYDVVFIDTPPALGYLTINGLSAADILLVPMGASFLEFDSTGRFFDMLHSTFASIEEGENLAARALGRPEIGFEWDAVRAVITRYDGAQQGELAGLVQAYMGPTLSPHRQDFTALIGQAGEQVNGIYEADYRDFNRETYARGRETFDETYAAFKRLLNGVWRREELAVQEERAAS,not soluble
11,MGSDKIHHHHHHMAKDITLRQLRYFIAAARAGQFSMAATNEHVSQSAITNAVIALEQALGTKLFDRGAHGVTMTVDGHDFYHHARHVLDSVRDAMHKPRAGARATSGTVRIAASYAVLGYFLPELLARFRASFPAIELDLRDMDRAVIENAVLDGTIDLGVTLVSNTPRLDAFEHRILIRSRRQLWTAPSHPLAHAASMSLADIAMHPYILLTVDEGEASTTRYWQAKGMQPNIAFRTGSMEAVRGLVANGFGVTVLSDMLFRAWSLDGTRIDARPVVDSIPPMEVGLIWRPGAALAPAAQQLRHFLIQVNSGEAD,not soluble
12,MGSDKIHHHHHHMAKFIMVVGTSSNSGKTVLVSGICRMLSNKGYKVAPFKSQNMSLNSRVSVEDGEIAVAQYTQAMAARAEPSVHFNPILLKPKGNFVSQVIVHGNPYEDKDYNEYRSKKDDFLVKIKESIDYLDKNYDYVVIEGAGSCCEINLLNDDIANLKVAEIAGADAILVSDIDRGGVFASIYGTVQLLPENWKKLLKGFVINKFRGNIDVLKDGFEKIEELTNIPVIGTIPYDETLVLPEEDSQALDGKRVFGNLKSPIEVNVVKFSKIANFTDVDPFSSDCLMKYIDFNENITGDILILPGTRCSTVEMDLMKKYGMDKKILEFVENGGIVLGICGGYQALGKMLFDEDFSEGDVGTISGLGLFDMETTFGNKKAIKNSTGKISIFNQNFDVSGYELHEGYSVSNETPLISLSKGFGNCGDSYDGSFKMIGDSYIFGTYFHGILENFEFRNYLVNLARSKKNLSKIEDDTYAELFNENMDKLSKIIEENLDFSKIIG,not soluble
13,MGSDKIHHHHHHMAKIHMVLQGKGGVGKSMIAATIAQYKAGKGQKPLCIDTDPVNATFEGYKALNVRRLNIMDGDEINTRNFDALVEMIASAEGDVIIDNGASSFVPLSHYLISNQVPALLQDMGHELVVHTVVTGGQALVDTVSGFAQLASQFPAECLFVVWLNPYWGPIEHEGKGFEQLKAYTTNKGRVSAIIQIPALKEETYGRDFAEMLQDRRTFDEALADSALTIMTRQRLKIVKTQLFAQLENAAVL,not soluble
14,MGSDKIHHHHHHMAKVVTLTATNGETIQFVEEVKAQGGMKDVMFSPNRDYVVAFLRDPADNETKERLEMITGQYRKRIFNQEGGEYLKKLYCWPTAVVEYNGKLGVVSPFYRDCFFFQYGSRNSDMLGIQGKEKDGKWFASANNRNKFLAPEELGDWMLHLKVCLMLARAVRRMHMAGLSHSDLGYKNCLIDPTTGQACLIDIDGLVVPGKHPPTVVGTPDFIAPEVVATSHLDVKDPNRKLPSRTTDLHALAVLIYMYLLYRHPLRGDKVFDPNDPQRDEELGMGKQALFVEHPTDRSNRIKTENIRPSEHPWKDTEKMPYTLTGTYLSDLFKRAFIDGLHNPQARPTADEWEQALVKTVDLLQPCSNASCEQKWYAFDNSKHPKCPFCGTAHHGKLPVLNLYSGTPDGKFRPDNHRIMVYSNQSLFKWHADNRVFPNEKLRSEDAKRVGYFVQHNGNWWLVNEALPEIYDVKAKQAIPIGGKVKLDDGGQILLQKGIGGRLLMVQMAG,not soluble
15,MGSDKIHHHHHHMALMFPRLARNFVKNGYFPTDEPTLERALNALMPSDGSMCILDPCAGEGVAIAEAAHALGREQVKAFAVEFDAERARHARGLVDHCLHADLMDAMISKQSFGLLWLNPPYGDLSKDVNGNIGYQGQGRARLEKLFYQRSLSLLQYGGVLVFIVPGYVLDAELVGWLTRHYTDLRIYRAVETQFKQVVIFGRRVRQREQAPDGVKAVRNLLLQVGLGEVEAEELPSDWPFLPYIVPASPAEPEHFFRVTMEPEQFADEVGRLQGLWPSLDTHLGAAQQSLRPPARALSHWHLALALAAGAISGVVRSKTGRVLVVKGDTHKDKTLQREFTEREDGSIAETRILTDKFVPVIRAWDMTPSSATRGEVLTIR,not soluble
16,MGSDKIHHHHHHMALPKKLKALNLFNNGESYLGQVVEVKLPTLSRKMEEYRGGGMNGPVDIDFGQEKIELEWKCGGMMRSVLNQYGATTHNAVQLRFAGSYQRDDSGAVDAVEFVVRGRHKEIDPGTGKSGDDTEFSVKTSASYYKLMINGSTVIEIDLMNMIEIVNGVDLLAPHRRAIGA,not soluble
17,MGSDKIHHHHHHMALSLRACILLLKEHHLLKSAAIQNTEDVDMTGIAYDSRKVSGPTLFFCKGDKFRPIYLSMAKDNGARTYVAEKPYVEGNGLNALIVRNITKAMAILSAAFFDYPQDDLFVIAYTGTKGKTTASYFTEAILNEARPRHIALFSTIDTVVGPEPDQRFKSNLTTPESLDLFRDMREAVENGMTHLVMEVSSQAYLRNRVFGLTYDVGFFLNITPDHIGPNEHPTFANYLHNKLQLLVNARKVVINAETEHFDQVYAAATTTTYPESIYLFASAGFRPKRDDIDIDFRFDSQEADVAESRFTLVPVTEKAAALNIGGHYSLALIGDFNESNATAAIIGAGLAGVDASAAVPGIAKVKIPGRMEHTKVAGHGAVYVDYAHNYASMKALLSFLKHAYKDPRLLVVVGSPGDKGVSRRPGFAKVLTEFATEAFLTTDDPGYEDPANIIEEIDSKIDHSKVKVHKVLDRKKAIAEAISDSGPNDIVVVAGKGADPYQKVRGVNTPWPTDMAVVKQVAKSLQEG,not soluble
